How the values were obtained:
[1] = target: Met receptor on MDCK cells (UniProt Q75ZY9 25-1382); experiment: cell-based or functional assay
[2] = target: Met receptor on MK keratinocytes (mouse, UniProt P16056 25-1379); experiment: cell-based or functional assay

B1: InIB321_Crys (InIB321 G206C A227C C242A, "crystal dimer") (ligand)
chain: ETITVPTPIKQIFSDDAFAETIKDNLKKKSVTDAVTQNELNSIDQIIANNSDIKSVQGIQYLPNVTKLFLNGNKLTDIKPLANLKNLGWLFLDENKVKDLSSLKDLKKLKSLSLEHNGISDINGLVHLPQLESLYLGNNKITDITVLSRLTKLDTLSLEDNQISDIVPLACLTKLQNLYLSKNHISDLRALCGLKNLDVLELFSQEALNKPINHQSNLVVPNTVKNTDGSLVTPEIISDDGDYEKPNVKWHLPEFTNEVSFIFYQPVTIGKAKARFHGRVTQPLKE
modifications: two intermolecular disulfides: Cys 206 of chain A with Cys 227 of chain B and vice versa
[1]
  cell scattering of MDCK cells, potency relative to HGF and InIBfl: ~2 orders of magnitude
[2]
  stimulation of DNA synthesis in MK keratinocytes, activity relative to full-length InIB: ~10 fold

— patent EP2138508A1 (Helmholtz-Zentrum für Infektionsforschung GmbH, dated 2009)
